Assay results: the supplement of paper PMC9112550, “Optimization of the antimicrobial peptide Bac7 by deep mutational scanning” (BMC Biology, 2022)

Tested on: Escherichia coli TOP10
Experiment: shrunken log2 fold change of peptide-encoding DNA abundance (4.5 h post-induction vs induction); higher = less antimicrobial activity (less host growth inhibition)
Details: time post-induction: 4.5 h; library: site-saturation at positions 5, 18, 19, 20
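Further: peptides expressed intracellularly from a pBAD plasmid library in pooled LB shake-flask culture, induced with 0.3% L-arabinose, DNA abundance read by NGS, three biological replicates, DESeq2 with apeglm shrinkage.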

| Sequence | shrunken log2 fold change |
| --- | --- |
| RRIRSRPPRLPRPRPRPHDSPRP | 0.0375 |
| RRIRSRPPRLPRPRPRPHDYPRP | 0.0635 |
| RRIRSRPPRLPRPRPRPHIRPRP | -0.632 |
| RRIRSRPPRLPRPRPRPHKLPRP | -0.228 |
| RRIRSRPPRLPRPRPRPHMFPRP | -0.428 |
| RRIRSRPPRLPRPRPRPHNCPRP | -0.159 |
| RRIRSRPPRLPRPRPRPHPHPRP | -0.168 |
| RRIRSRPPRLPRPRPRPHQEPRP | -0.0261 |
| RRIRSRPPRLPRPRPRPHRAPRP | 0.0729 |
| RRIRSRPPRLPRPRPRPHVEPRP | 0.121 |
| RRIRSRPPRLPRPRPRPHWKPRP | 0.0398 |
| RRIRSRPPRLPRPRPRPHWQPRP | -0.0893 |
| RRIRSRPPRLPRPRPRPHWWPRP | 0.359 |
| RRIRSRPPRLPRPRPRPHYNPRP | -1.04 |
| RRIRSRPPRLPRPRPRPIDFPRP | -0.0652 |
| RRIRSRPPRLPRPRPRPIDGPRP | 0.0145 |
| RRIRSRPPRLPRPRPRPIFHPRP | -0.29 |
| RRIRSRPPRLPRPRPRPIFPPRP | 1.04 |
| RRIRSRPPRLPRPRPRPIFSPRP | -0.617 |
| RRIRSRPPRLPRPRPRPIGGPRP | -0.0412 |
| RRIRSRPPRLPRPRPRPIGHPRP | -0.171 |
| RRIRSRPPRLPRPRPRPIGPPRP | -0.0999 |
| RRIRSRPPRLPRPRPRPIHYPRP | -0.386 |
| RRIRSRPPRLPRPRPRPIINPRP | -0.565 |
| RRIRSRPPRLPRPRPRPIIRPRP | -1.09 |

| Sequence | shrunken log2 fold change |
| --- | --- |
| RRIRSRPPRLPRPRPRPIKYPRP | -0.654 |
| RRIRSRPPRLPRPRPRPILPPRP | 0.161 |
| RRIRSRPPRLPRPRPRPIMWPRP | -0.109 |
| RRIRSRPPRLPRPRPRPINNPRP | -0.647 |
| RRIRSRPPRLPRPRPRPINYPRP | -0.336 |
| RRIRSRPPRLPRPRPRPIPFPRP | -0.518 |
| RRIRSRPPRLPRPRPRPIQHPRP | -0.204 |
| RRIRSRPPRLPRPRPRPIQKPRP | 0.0496 |
| RRIRSRPPRLPRPRPRPIQRPRP | 0.0978 |
| RRIRSRPPRLPRPRPRPIRWPRP | 0.0723 |
| RRIRSRPPRLPRPRPRPISLPRP | 1.99 |
| RRIRSRPPRLPRPRPRPISPPRP | -0.402 |
| RRIRSRPPRLPRPRPRPISYPRP | -0.117 |
| RRIRSRPPRLPRPRPRPITGPRP | -0.105 |
| RRIRSRPPRLPRPRPRPIWEPRP | 0.0462 |
| RRIRSRPPRLPRPRPRPIYEPRP | -0.134 |
| RRIRSRPPRLPRPRPRPIYHPRP | -0.884 |
| RRIRSRPPRLPRPRPRPIYVPRP | -0.612 |
| RRIRSRPPRLPRPRPRPKACPRP | -0.253 |
| RRIRSRPPRLPRPRPRPKALPRP | 0.175 |
| RRIRSRPPRLPRPRPRPKCNPRP | -0.174 |
| RRIRSRPPRLPRPRPRPKCSPRP | -0.122 |
| RRIRSRPPRLPRPRPRPKDYPRP | -0.128 |
| RRIRSRPPRLPRPRPRPKEDPRP | 1.6 |
| RRIRSRPPRLPRPRPRPKEGPRP | -0.0287 |

| Sequence | shrunken log2 fold change |
| --- | --- |
| RRIRSRPPRLPRPRPRPKELPRP | 0.0175 |
| RRIRSRPPRLPRPRPRPKETPRP | -0.0164 |
| RRIRSRPPRLPRPRPRPKHWPRP | 0.311 |
| RRIRSRPPRLPRPRPRPKINPRP | -0.424 |
| RRIRSRPPRLPRPRPRPKKTPRP | -0.356 |
| RRIRSRPPRLPRPRPRPKLEPRP | 0.165 |
| RRIRSRPPRLPRPRPRPKMDPRP | 0.232 |
| RRIRSRPPRLPRPRPRPKMPPRP | 0.0106 |
| RRIRSRPPRLPRPRPRPKMWPRP | 0.458 |
| RRIRSRPPRLPRPRPRPKNHPRP | -0.215 |
| RRIRSRPPRLPRPRPRPKNKPRP | -0.242 |
| RRIRSRPPRLPRPRPRPKNRPRP | 0.0193 |
| RRIRSRPPRLPRPRPRPKPDPRP | 0.22 |
| RRIRSRPPRLPRPRPRPKPPPRP | 0.292 |
| RRIRSRPPRLPRPRPRPKPSPRP | 0.263 |
| RRIRSRPPRLPRPRPRPKSNPRP | -0.347 |
| RRIRSRPPRLPRPRPRPKTHPRP | -0.0477 |
| RRIRSRPPRLPRPRPRPKVCPRP | 0.00182 |
| RRIRSRPPRLPRPRPRPKVWPRP | 0.115 |
| RRIRSRPPRLPRPRPRPKWAPRP | -0.117 |
| RRIRSRPPRLPRPRPRPKWQPRP | 0.255 |
| RRIRSRPPRLPRPRPRPKWRPRP | 0.29 |
| RRIRSRPPRLPRPRPRPKWVPRP | -0.209 |
| RRIRSRPPRLPRPRPRPKYIPRP | -0.383 |
| RRIRSRPPRLPRPRPRPLATPRP | 0.627 |
